# Results from patent US8569578B1, “Generating transgenic potatoes with novel resistance to potato cyst nematodes by silencing nematode parasitism genes of CLE -1 and CLE-4s” (The United States of America, as represented by the …, priority 2009, dated 2013).
# “Also recorded” adds a separate entry of the source.
# B1: Gr-CLE-4-B: G. rostochiensis CLE gene of class Gr-CLE-4, cDNA SEQ ID NO: 4 (nucleic acid, listed as Globodera rostochiensis)
# DNA: ATCATAATTTCCAAAATCCCAATAAAAGCTTCCTCAATAAAGTAAATATGGCCACGAACACAATGCTTTGCCTGTTAATTTTGAGCGTTGTTCTCGCTCTCGCATTTGCTACGAATAAAAAGGGTGATGAAGAACCGGAGAACCATTCGACCGGCATTTTTGGAAAGGTCGGACGAGTTGTGACCGTGGCACTTGCGATGTCGTCTCGTCTGGGAGGGGCTGACGCAACCCGAGGAGGTGGAGCTGTATATGGAGGAAACTTGAAATCCAATCTATTGCCAAACAACAATTGGATGGCGCCACCTCCTCCAATGGCAATGAGAAGTGCCAAAGTCTATGATTCGAAACATTCTCCTGCTGAATATCTTAAAAAATTTGCTCAAGACTTTCGCCGAAAAACCGGCATGCACTCCCAGCGGCATCACGAAGAAACAACACTGGAACAGGAGAAGCGTGTAGCGGGAGCTGGTCCCGACCCAATACATCACCAAGATACAACACTGGAACAGGAGAAGCGTGCAGTCCCAGCTGGGCCCGACCCAAAACATCACGAAGAAACAACACTGGAACAGGAGAAGCGTGCAGTCCCAGCTGGGCCCGACCCAAAACATCACGAAGAAACAACACTGGAACAGGAGAAGCGTGCAGTCCCAGCTGGGCCCGACCCAAAACATCACGAAGAAACAACATTTGAACAGGAGAAGCGTGGTGCGCCAGCTGGGCCCGACCCAATACATCACTGATGCTCTTATTCACAATGCTAAAATATCTGTAGACTATAGATAAATTGCTAGCAACAGATAAATGCCTGATCATAATGCTATGGCTAAGGTATCCGTATTCCGAACTAGCAATATAAGCGCATGCGTAGCTCTATCCATTTAATTTCACAATCTAAAGATTAAAATCTGCAGATATCTAGCTGTAGCTGGGCTATCTGCGGATGGAAAAATCGGCATTCTTAATATAATTTTTAATTGCTTAATAAACTTCAATAAAA
# B2: Gr-CLE-1: G. rostochiensis CLE gene, cDNA SEQ ID NO: 1, encoding a 204 amino acid secreted protein with four CLE motifs (nucleic acid, listed as Globodera rostochiensis)
# DNA: TATTAATATTGACTAATTTTTTTTTACAAACATATTAATATTGACTAAAAAAATTGATTTTAATAACGACTATAGATATTACTTATGGAGCAACAAAAATCGTCATATTTCCCATCAAATTCAAATAAAACAATCTCTCCAATAAAGTAAATATGGCCAAGAACGCAATGCTTTGCCTGCTGATTTTGAGCGTTGTTCTTGCTCTCGCATTTGCTACAAATGAAAAGGATGATAAAGAAGCGGGGAACCTTTCGACCGGCATTTTTGGAAAGGCCGGAAGATTTGTGACCGTGGCACTTGCGATGTCGTCTCGTCTGGGAGGGGCTGGCGCATCCCAAGGAGGTGGAGCTGTACATGGAGAAAGCTTGAAATCCAATCAATTGCAAAACGCCTATCGGATGGCGCTTCCTCCTCCAATGCAAATAAAAAGTGCCGAAATTGACGGATGGAAACCGTCTCCTGATGAATATCTTAAAAAATTTGCTCAAGAATTTCGCCGAAACACCGGTATGAAACCCCAGTCGTATAATGAAGAGAAGCGTGTAACGCCGGGAGGGCCCGACCCACTACATAACCGTGAAAAAATTCTGGAAGAACAGAAGCGTGTAACGCCGGGAGGGCCTGACCCACTACATAACCGTGAAAAAACTCTGGAAGAACAGAAGCGTGTAACGCCGGGAGGGCCTGACCCACTACATAACCGTGAAAAAACTCTGGAAGAACAGAAGCGTGTAACGCCGGGAGTGCCCGACCGACAACATCGCTGAGGCAATACAAAAAGAGTGAAAGAAAATCGACGGATGTCTTTAGTAATTTCAATTCGTTCCTATCTTTCTCGTTCTGAAGACCAAATATCGATGATGTTAATGTTATGTTCGGAAAACAATTTCTGATATGCGCACACTTGGCA
# Assays:
# potato hairy roots = assay: overexpression of Gr-CLE genes in potato hairy roots; assay type: in vivo; settings: measured at 4, 6, 8 and 10 days after dissecting; compared with vector control
# Text: To examine root meristems, primary root tips were excised from peptide treated Arabidopsis seedlings or from transgenic potato hairy roots and immediately mounted in water onto a glass slide. Roots were examined under an Olympus BX-50 microscope equipped with Nomarski optics and images were captured using a QImaging Retiga EXi digital CCD camera (QImaging, Surrey, BC, Canada). The root apical meristem (RAM) regions of individual primary roots that covered the distance from the position around the quiescent center to the position where elongated root cells immediately follow cytoplasm-dense meristematic cells were measured microscopically. The collected data were analyzed using the MetaMorph imaging analysis software (Universal Imaging Corporation, Downingtown, Pa., U.S.A.)
# A. rhizogenes strain 15834 was transformed with individual transgene constructs of interest and used for the generation of potato hairy roots as described previously (Wang et al. 2007. Mol. Plant Pathol. 8:423-436) with some modifications. Potato stem pieces from tissue cultures were incubated with the transformed A. rhizogenes cell suspension for 10 mins, then transferred onto the callus induction medium containing 1×MS salts (Sigma-Aldrich), 26.7 μM Glycine, 4 μM Nicotinic Acid, 2.4 μM Pyridoxine HCL (Sigma-Aldrich), 1.2 μM Thiamine HCL (Sigma-Aldrich), 0.5 μM Folic Acid, 0.2 μM d-biotin (Sigma-Aldrich), 0.01% Myo-inositol (Acros, Morris Plains, N.J., U.S.A.), 3% sucrose, 0.001% 6-BAP (Sigma-Aldrich), 0.002% NAA (Sigma-Aldrich), and 1% agar and cultivated for four days at 24° C. without light. The infected stem pieces were then cultured on the propagation medium containing 1×MS salts, 1.2 mM NaH2PO4, 0.01% Myo-inositol, 0.1% Thiamine HCl, 3% sucrose, 1% agar, 50 μg/mL of kanamycin, and 238 μg/mL of timentin (GlaxoSmithKline). Timentin was used to inhibit the growth of A. rhizogenes 15834 and kanamycin was added to select for transformed roots. Approximately 12-15 days after root emergence, 1 cm-long root tips were dissected and cultured on vertical plates containing the propagation medium with 119 μg/mL of timentin and the root growth rate was measured at different time points.
# [1] = test system: Arabidopsis clv3-2 mutant plants; assay: complementation of clv3-2 mutant by Gr-CLE genes under CLV3 promoter; assay type: in vivo; settings: gene under control of CLV3 promoter in clv3-2
# Text: Gr-CLE proteins can completely or partially replace CLV3 activity within meristems. For the complementation study, Gr-CLE genes were subcloned into pBU14 under the control of the CLV3 promoter (Brand et al. 2002. Plant Physiol. 129:565-575). To generate the PCLV3:Gr-CLE-1 construct, primer pair of CLE1-spF and CLE1-TGAxbaR was used. To generate PCLV3:Gr-CLE-4-B and PCLV3:Gr-CLE-4-C constructs, primer pair of CLE4B1-spF and 4B1-TGAxbaR was used. Each amplified PCR product was cloned into pBU14 at BamHI and XbaI sites. Arabidopsis clv3-2 mutant plants were transformed with A. tumefaciens GV3101 harboring each of the above constructs.
# All transformants were selected on ½×MS medium containing 50 μg/mL of kanamycin (Sigma-Aldrich) (for the pMD1 vector) or 30 μg/mL of glufosinate ammonium (Fisher, Pittsburgh, Pa., U.S.A.) (for the pBU14 vector) and transgenic Arabidopsis plants were then cultivated at 24° C. for 16 h of light and 8 h of dark in a growth room. For measuring the root growth rate, transgenic plants expressing individual Gr-CLE genes or the empty vector were first selected on kanamycin containing medium for five days, then transferred to ½×MS plates and cultured vertically at 24° C. for 16 h of light and 8 h of dark in a growth chamber (Percival, Perry, Iowa, U.S.A.).
# Gr-CLE-1, Gr-CLE-4-B, and Gr-CLE-4-C were the most representative Gr-CLE genes identified. To determine if these genes could replace CLV3 activity in the shoot and floral meristems, the full-length sequences of these three genes were cloned under the control of the CLV3 promoter and introduced into Arabidopsis clv3-2 mutant plants. clv mutants have enlarged shoot and floral meristems that lead to shoot fasciation and formation of extra floral organs including an increase in carpel number (Clark et al. 1993, 1995; Kayes and Clark 1998). For example, flowers of a clv3-2 mutant usually have six to seven carpels in the fourth whorl (Clark et al. 1995), whereas wild-type flowers have only two carpels in the fourth whole. Carpel number is a sensitive measurement for meristem size (Clark et al. 1993; Ni and Clark 2006). Multiple independent transgenic lines for each transgene were obtained and analyzed (Table 2).
Molecule,length of primary roots of transgenic potato hairy root lines (potato hairy roots),average number of carpels in flowers and siliques [1],rescue of clv3-2 meristem defects [1]
B1,short root phenotype,two,nearly complete rescue
B2,short root phenotype; also recorded: much shorter,three to four,partial rescue
